Among the data in EP4580670A2 are fold improvement of Env binding affinity relative to the UCA values, retold here.

The target of this test is CH848 day 949 SOSIP Env trimer (soluble SOSIP trimer derived from a virus isolated from the CH848 individual at day 949 post infection) (HIV-1). The test is described as follows: method not stated; affinities shown in Figure 1B; reference DH270 UCA.

The substance DH270.I5 Fab displayed a fold improvement of Env binding affinity relative to the UCA of 8 fold.
